Measurements as given in publication PMC12752606, “METTL10‐Mediated PIAS3 Methylation Links Purine Metabolism to Gastric Cancer Progression” (Advanced Science, 2025).

Target: T1, GST-PIAS3 (UniProt Q9Y6X2 1-628)
T1 construct: PIAS3; also called bacterially expressed PIAS3; source: E. coli BL21, purified (Glutathione Agarose Resin)
T1 sequence (looked up): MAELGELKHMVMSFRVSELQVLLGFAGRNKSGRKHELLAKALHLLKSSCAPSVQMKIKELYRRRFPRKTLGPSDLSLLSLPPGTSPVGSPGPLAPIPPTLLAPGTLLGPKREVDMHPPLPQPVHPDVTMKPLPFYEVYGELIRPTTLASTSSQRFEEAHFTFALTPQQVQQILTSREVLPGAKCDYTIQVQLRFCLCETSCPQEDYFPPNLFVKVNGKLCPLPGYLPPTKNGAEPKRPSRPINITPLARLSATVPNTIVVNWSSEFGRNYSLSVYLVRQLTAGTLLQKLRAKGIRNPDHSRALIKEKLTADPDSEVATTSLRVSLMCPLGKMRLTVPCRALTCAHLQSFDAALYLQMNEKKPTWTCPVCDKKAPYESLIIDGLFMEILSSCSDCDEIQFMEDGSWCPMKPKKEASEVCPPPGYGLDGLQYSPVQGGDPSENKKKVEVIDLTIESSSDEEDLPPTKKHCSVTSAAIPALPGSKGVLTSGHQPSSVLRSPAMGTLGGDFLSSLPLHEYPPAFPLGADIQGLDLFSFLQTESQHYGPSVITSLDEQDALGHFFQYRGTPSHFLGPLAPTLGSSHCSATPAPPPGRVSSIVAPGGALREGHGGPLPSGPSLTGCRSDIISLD
Assay: pull-down; purified GST or GST-PIAS3 incubated with purified His-METTL10 in 25 mM Tris-HCl pH 8.0, 150 mM NaCl, 4 °C overnight; Glutathione Agarose Resin; eluted with 10 mM reduced glutathione
Details: both partners purified

binding result: binds
B1: His-METTL10 (enzyme)
chain: not shown
notes: METTL10 (EEF1AKMT2); also called bacterially expressed METTL10; source: E. coli BL21, purified (Ni-NTA resin)
